Test results as given in PMC11894141 (EMBO Reports, 2025).

Target: T1, recombinant GST-tagged HSC70 (wild type) (human, UniProt P11142-1 1-646)
T1 construct: HSC70, human HSPA8 cDNA in pGEX-6P-1; also called GST-HSC70; GST-HSC70 WT; source: BL21-Rosetta E. coli, purified (Glutathione Sepharose 4 Fast Flow, eluted with reduced glutathione)
Experiment: pull-down; Strep-tagged CSN held on Streptactin Sepharose, HSC70 at a 1:5 ratio, room temperature; with or without 5 µM NR peptide; Coomassie or immunoblot
Details: both partners purified

T1 sequence (P11142 whole entry): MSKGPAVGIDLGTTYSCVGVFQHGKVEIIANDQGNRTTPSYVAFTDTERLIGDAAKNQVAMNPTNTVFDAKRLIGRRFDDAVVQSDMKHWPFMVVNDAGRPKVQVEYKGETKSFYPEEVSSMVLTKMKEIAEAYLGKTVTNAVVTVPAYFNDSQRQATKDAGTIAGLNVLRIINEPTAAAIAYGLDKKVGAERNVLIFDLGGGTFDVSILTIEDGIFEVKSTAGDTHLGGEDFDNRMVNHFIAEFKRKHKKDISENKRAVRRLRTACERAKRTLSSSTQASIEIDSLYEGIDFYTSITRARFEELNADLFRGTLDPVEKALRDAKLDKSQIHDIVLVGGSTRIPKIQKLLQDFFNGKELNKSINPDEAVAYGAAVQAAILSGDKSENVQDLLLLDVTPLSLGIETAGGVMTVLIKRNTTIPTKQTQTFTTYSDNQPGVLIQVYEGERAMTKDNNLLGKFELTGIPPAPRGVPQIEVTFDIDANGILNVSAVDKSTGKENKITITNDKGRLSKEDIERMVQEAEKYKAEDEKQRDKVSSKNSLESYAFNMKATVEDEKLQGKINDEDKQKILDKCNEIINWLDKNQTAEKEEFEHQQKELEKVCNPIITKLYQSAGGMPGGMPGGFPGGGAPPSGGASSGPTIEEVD

binding result: binds
B1: NR peptide (an HSC70 model substrate) (peptide)
peptide: NRLLLTGC
notes: NR peptide, HSC70 model substrate (Xu et al, 2012)
